IntAct's records for PubMed 25150978

Target: arhg7_human ARHGEF7 (UniProt Q14155)

Ras-related C3 botulinum toxin substrate 1 (Homo sapiens) (from UniProt P63000-1) G15A
effect of a mutation on the interaction: increasing interaction strength
